Experimental data reported in publication PMC3754857.

Target: OX40-R65C (human OX40 with p.Arg65Cys), expressed ectopically on cells (human) (UniProt P43489)
Assay: flow cytometry on cells

Sequence of UniProt P43489 (P43489 29-277 R65C): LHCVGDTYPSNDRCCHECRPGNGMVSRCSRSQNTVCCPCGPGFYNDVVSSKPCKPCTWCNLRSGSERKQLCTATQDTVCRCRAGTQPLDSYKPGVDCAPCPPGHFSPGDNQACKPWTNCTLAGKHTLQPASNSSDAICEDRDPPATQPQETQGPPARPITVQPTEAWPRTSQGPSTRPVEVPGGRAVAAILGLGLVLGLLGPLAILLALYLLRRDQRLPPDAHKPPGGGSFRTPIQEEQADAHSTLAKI

Work on “biotinylated recombinant soluble human OX40 ligand (OX40L) (from UniProt P23510 51-183)” yielded a fold decrease of OX40L binding against cells expressing OX40-WT of 16 fold.
